Changes are numbered by the printed parent chain. Numbers in names are those of the source.
B1: [I201T, D253R]: HCPB mutant with I201T and D253R, (His)6-c-myc tag (protein, UniProt P15086 111-417, looked up, variant I201T D253R)
Carboxypeptidase B: ATGHSYEKYNKWETIEAWTQQVATENPALISRSVIGTTFEGRAIYLLKVGKAGQNKPAIFMDCGFHAREWISPAFCQWFVREAVRTYGREIQVTELLDKLDFYVLPVLNIDGYIYTWTKSRFWRKTRSTHTGSSCIGTDPNRNFDAGWCEIGASRNPCDETYCGPAAESEKETKALADFIRNKLSSIKAYLTIHSYSQMMTYPYSYAYKLGENNAELNALAKATVKELASLHGTKYTYGPGATTIYPAAGGSRDWAYDQGIRYSFTFELRDTGRYGFLLPESQIRATCEETFLAIKYVASYVLEHLY
modifications: (His)6-c-myc tag
B2: [G251T,D253R]HCPB: HCPB mutant with G251T and D253R, (His)6-c-myc tag (protein, UniProt P15086 111-417, looked up, variant G251T D253R)
Carboxypeptidase B: B1 Carboxypeptidase B with T201I, G251T
modifications: (His)6-c-myc tag
B3: [I201S, D253K]: HCPB mutant with I201S and D253K (protein, UniProt P15086 111-417, looked up, variant I201S D253K)
Carboxypeptidase B: B1 Carboxypeptidase B with T201S, R253K
B4: [G251K, D253R]: HCPB mutant with G251K and D253R (protein, UniProt P15086 111-417, looked up, variant G251K D253R)
Carboxypeptidase B: B1 Carboxypeptidase B with T201I, G251K

How the values were obtained:
Type in all cases: biochemical
[1] = Activity against Hipp-Glu in crude E. coli periplasmic shockate relative to D253K or D253R HCPB (Example 16)
Description: (§1) A number of other mutant HCPBs have been constructed in a similar manner to the methods described in Reference Examples 7 and 8, and Examples 12, 13, 14 and 15. In each case oligos were constructed to introduce specific changes in the gene sequence by methods similar to those described above. In some cases additional mutations were identified upon complete sequencing of the mutated gene, and these were presumably introduced during the PCR reactions. Mutants with enzyme activity against substrate analogues (see Example 18 below) have been identified, and examples of these are given in Table 4 below. […] This material is subsequently referred to as periplasmic shockate or shockate and is prepared by the following procedure.
(§2) 1. A single colony was used to inoculate 75 ml of L-broth nutrient media containing 10 μg/ml tetracycline and arabinose to a final concentration of 0.01% (w/v). Incubation was performed at 20° C. with shaking (250 rpm) for about 60 hours.
(§3) 2. The cells were then harvested by centrifugation at 4° C.
(§4) 3. The cell pellet was re-suspended in 300 micro-liters of 20% sucrose (w/v) containing 1 mM EDTA in 200 mM Tris-HCl at pH7.5, and incubated at room-temperature for 15 minutes.
(§5) 4. Periplasmic shockate was generated by the addition of 450 micro-liters of distilled water, and a further incubation at room-temperature for 15 minutes.
(§6) 5. Cellular remains were removed by centrifugation, and the supernatant assayed for enzyme activity as soon as possible after preparation and kept at 4° C. prior to assay.
The activity of [G251T,D253K]HCPB was measured using the assay conditions described in Example 17 but using either 50 μl of a neat or 1 in 10 or 1 in 100 dilution of [G251T,D253K]HCPB crude E.coli periplasmic shockate (shockate) sample in place of purified enzyme. Samples were incubated for 24 h at 37° C. […] The amount of Hippuric acid produced in 24 h was quantified by HPLC as described in Example 17 and the results are shown in Table 6 and are expressed as the percentage conversion of substrate into product in 24 h at 37° C.

[2] = Activity against Hipp-Asp in crude E. coli periplasmic shockate relative to D253K or D253R HCPB (Example 16)
Description: as §1, §2, §3, §4, §5, §6
(§7) The activity of [G251T,D253K]HCPB was measured using the assay conditions described in Example 17 but using either 50 μl of a neat or 1 in 10 or 1 in 100 dilution of [G251T,D253K]HCPB crude E.coli periplasmic shockate (shockate) sample in place of purified enzyme. Samples were incubated for 24 h at 37° C. […] For other HCPB mutants, the reaction volume was 250 μl and contained 125 μl of neat shockate or 1 in 50 dilution of shockate. The shockate samples were prepared as described in Example 16. The amount of Hippuric acid produced in 24 h was quantified by HPLC as described in Example 17 and the results are shown in Table 6 and are expressed as the percentage conversion of substrate into product in 24 h at 37° C.

[3] = Conversion of Hipp-Asp by purified HCPB mutants, 30 minutes, HPLC (Example 17); details: 0.5 mM substrate, 30 minutes at 37° C.
Method: (§8) Purified mutants of human CPB (D253K; [G251K,D253R]; [G251N,D253R]; [I201S,D253K]; [G251N,D253K]; [Q54R,D145A,D253K]; [G251T,D253K]; [G251S,D253K]; [A248N,G251N,D253K]; [A248S,G251N,D253K] and [S205N,G251N,D253K]—described in Examples 3, 12, 13, 16, 28, 30, 31, 32 and 33) were assayed for their ability to convert hippuryl-L-glutamic acid (Hipp-Glu—Reference Example 1), hippuryl-L-aspartic acid (Hipp-Asp—Reference Example 2) and hippuryl-L-arginine (Sigma Chemical Company—cat no. H6625) to hippuric acid using a HPLC based assay similar to that described in Example 6.
(§9) Samples were incubated for 30 minutes at 37° C. The reactions were terminated by the addition of 500 μl of 40% methanol, 60% distilled water, 0.2% trifluoro acetic acid and the amount of hippuric acid generated was quantitated by HPLC as described in Example 6 but using a mobile phase of 20% methanol, 80% 50 mM phosphate buffer, pH 6.5. Hippuric acid was detected at 230 nm. The results are shown in Table 5 and are expressed as the percentage conversion of substrate into product in 30 minutes at 37° C.

[4] = Km and kcat of HCPB mutants with Hipp-Glu (Example 7); details: Hipp-Glu 0.25-8.0 mM; pH 7.5; 5 h at 37° C.
Method: (§10) Hipp-Glu and Hipp-Asp were diluted in range 0.25-8.0 mM and 0.25-5.0 mM respectively in 0.025 M Tris-HCL buffer, pH 7.5. Where necessary substrate samples were adjusted to pH 7.5 with 1M NaOH.
(§11) Samples were incubated for 5 h at 37° C. Reactions were terminated by the addition of 500 μl methanol/distilled water (80/20) containing 0.2% TFA. The amount of hippuric acid produced was quantified by HPLC as described in Example 6.
(§12) Km and Vmax values were calculated using the ENZFITTER software programme (Biosoft, Perkin Elmer).

[5] = Km and kcat of HCPB mutants with Hipp-Asp (Example 7); details: Hipp-Asp 0.25-5.0 mM; pH 7.5; 5 h at 37° C.
Method: as §10, §11, §12

[6] = Conversion of Hipp-Glu by purified HCPB mutants, 30 minutes, HPLC (Example 17); details: 0.5 mM substrate, 30 minutes at 37° C.
Method: as §8, §9

[7] = Conversion of Hipp-Arg by purified HCPB mutants, 30 minutes, HPLC (Example 17); details: 0.5 mM substrate, 30 minutes at 37° C.
Method: as §8, §9

[8] = Conversion of Hipp-Asp by periplasmic shockate of HCPB mutants, 24 h (Example 18); details: shockate concentration in reaction mixture 50 %; 24 h at 37° C.
Method: as §7

[9] = Conversion of Hipp-Glu by periplasmic shockate of HCPB mutants, 24 h (Example 18); details: shockate concentration in reaction mixture 50 %; 24 h at 37° C.
Method: as §7

[10] = Conversion of prodrug of Example 24 to drug of Example 25 by HCPB mutants, HPLC (Example 20); details: enzyme 15 μg/ml; 0.5 mM prodrug of Example 24; 5 minutes at 37° C.
Method: The reaction was stopped by adding MeCN (500 μl) plus 0.2% Trifluoroacetic acid. The amount of drug produced was then quantified by HPLC.
HPLC separation was carried out as described in Example 6 except that a mobile phase of 70% MeCN, 30% distilled water and 0.1% trifluoroacetic acid was used to achieve separation of prodrug (retention time 3.8 minutes) and drug (retention time 4.9 minutes) and the compounds were detected at 260 nm. The amount of drug produced was quantified from calibration curves generated with known amounts of drug.
The amount of [Q54R,D145A,D253K]HCPB and [G251T,D253K]HCPB mutants was reduced to 0.75 μg in the reaction mixture.

Molecule | Hipp-Glu, activity relative to D253K HCPB or D253R HCPB [1] | Hipp-Asp, activity relative to D253K HCPB or D253R HCPB [2] | Hipp-Asp (% conversion) ([3]; enzyme 1 μg/ml) | Hipp-Asp (% conversion) ([3]; enzyme 25 μg/ml) | Km [4] | kcat, Hipp-Glu [4] | Km [5] | kcat, Hipp-Asp [5] | Hipp-Glu (% conversion) ([6]; enzyme 1 μg/ml) | Hipp-Glu (% conversion) ([6]; enzyme 25 μg/ml) | Hipp-Arg (% conversion) ([7]; enzyme 1 μg/ml) | Hipp-Arg (% conversion) ([7]; enzyme 25 μg/ml) | Hipp-Asp (% conversion) [8] | Hipp-Glu (% conversion) [9] | Prodrug Hydrolysis (%) [10] | Hipp-Asp (% conversion) ([3]; enzyme 2.5 μg/ml) | Hipp-Glu (% conversion) ([6]; enzyme 2.5 μg/ml) | Hipp-Arg (% conversion) ([7]; enzyme 2.5 μg/ml)
B1 | b (activity equivalent to D253R HCPB) | b (activity equivalent to D253R HCPB) |  |  |  |  |  |  |  |  |  |  |  |  |  |  |  | 
B2 |  |  | 1.2% | 29% | 1600 µM | 7.8 s⁻¹ | 1700 µM | 0.7 s⁻¹ | 16.2% | 96% | 0% | 0% | 14.6% | 65.4% |  |  |  | 
B3 | NAD (No activity detected) | b (activity equivalent to D253R HCPB) |  | 33.1% |  |  |  |  |  | 27.8% |  | 0% |  |  | 72.6% | 5.8% | 4.6% | 0%
B4 |  | NAD (No activity detected) |  | 0.2% |  |  |  |  |  | 5.5% |  | 0% |  |  | 16.2% | 0.2% | 3.2% | 0%
